According to the supplement of paper PMC10724198:
± gives the standard deviation of the averaged measurements.

How the values were obtained:
Saccharomyces cerevisiae [1] = experiment: protein stability index of tFT-peptide fusion (C-terminal peptide) (PSI (0-1 scale)); higher = more stable (slower turnover)
Experimental: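 MPS profiling in S. cerevisiae of the tFT-X12 degron library: putative degron peptides plus stable controls, 12 aa, fused to the C-terminus of a sfGFP-mCherry timer. Cells are FACS-sorted into 8 mCherry/sfGFP bins and deep-sequenced. PSI runs from 0 (unstable) to 1 (stable). Backgrounds are wild type, das1Δ and doa10Δ at 30 °C, and wild type, das1Δ, cdc34-1 and cdc53-1 at 37 °C; 2-3 technical replicates each.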

Saccharomyces cerevisiae [2] = experiment: as above; details: genetic background: wild type; temperature: 30 C
[3] = genetic background: cdc34-1, temperature: 37 C
[4] = genetic background: cdc53-1, temperature: 37 C
[5] = genetic background: das1 deletion, temperature: 30 C
[6] = genetic background: das1 deletion, temperature: 37 C
[7] = genetic background: doa10 deletion, temperature: 30 C
[8] = genetic background: wild type, temperature: 30 C
[9] = genetic background: wild type, temperature: 37 C
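Further: PSI is a weighted mean of sequencing reads over stability bins, variants kept only with over 10 reads, mCherry proximal and sfGFP distal, peptide attached via GGGS linker.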

Sequence | protein stability index (Saccharomyces cerevisiae [1]; [3]) | protein stability index (Saccharomyces cerevisiae [1]; [4]) | protein stability index (Saccharomyces cerevisiae [1]; [5]) | protein stability index (Saccharomyces cerevisiae [1]; [6]) | protein stability index (Saccharomyces cerevisiae [1]; [7]) | protein stability index (Saccharomyces cerevisiae [1]; [8]) | protein stability index (Saccharomyces cerevisiae [1]; [9]) | protein stability index (Saccharomyces cerevisiae [2])
GWLRHGWWRTVG | 0.605 ± 0.024 | 0.709 ± 0.0069 | 0.658 ± 0.024 | 0.734 ± 0.011 | 0.152 ± 0.0082 | 0.17 ± 0.018 | 0.4286 ± 0.00089 | 0.313 ± 0.0015
YRWERIYIGLRL | 0.397 ± 0.037 | 0.523 ± 0.036 | 0.49 ± 0.039 | 0.615 ± 0.019 | 0.191 ± 0.008 | 0.188 ± 0.018 | 0.36 ± 0.0093 | 0.291 ± 0.024
RVCCLSFFFVFL | 0.445 ± 0.022 | 0.581 ± 0.054 | 0.398 ± 0.036 | 0.581 ± 0.014 | 0.427 ± 0.0094 | 0.391 ± 0.0052 | 0.551 ± 0.027 | 0.517 ± 0.024
RMCEILGIRHLI | 0.611 ± 0.031 | 0.742 ± 0.016 | 0.645 ± 0.025 | 0.748 ± 0.017 | 0.137 ± 0.013 | 0.158 ± 0.01 | 0.303 ± 0.016 | 0.245 ± 0.061
MALAVRVVVCGA | 0.0333 ± 0.0083 | 0.0649 ± 0.022 | 0.125 ± 0.025 | 0.131 ± 0.0024 | 0.0868 ± 0.014 | 0.107 ± 0.02 | 0.107 ± 0.021 | 0.184 ± 0.043
RGAVRVAWYPVL | 0.699 ± 0.00098 | 0.737 ± 0.01 | 0.64 ± 0.011 | 0.7511 ± 0.0011 | 0.492 ± 0.019 | 0.517 ± 0.0095 | 0.684 ± 0.011 | 0.508 ± 0.095
GGWSFSSLWKIA | 0.625 ± 0.066 | 0.817 ± 0.015 | 0.765 ± 0.038 | 0.8379 ± 0.0033 | 0.126 ± 0.013 | 0.127 ± 0.019 | 0.205 ± 0.012 | 0.301 ± 0.09
VWGLWRLCVWGV | 0.3896 ± 0.0011 | 0.479 ± 0.0054 | 0.327 ± 0.036 | 0.5012 ± 0.0017 | 0.274 ± 0.0082 | 0.302 ± 0.025 | 0.477 ± 0.0086 | 0.371 ± 0.057
YAFLWCVFYLSF | 0.228 ± 0.0071 | 0.235 ± 0.03 | 0.222 ± 0.028 | 0.337 ± 0.01 | 0.216 ± 0.0098 | 0.196 ± 0.017 | 0.305 ± 0.0082 | 0.289 ± 0.021
SFFFLILFLFRD | 0.372 ± 0.11 | 0.459 ± 0.04 | 0.315 ± 0.029 | 0.484 ± 0.014 | 0.318 ± 0.019 | 0.299 ± 0.03 | 0.466 ± 0.04 | 0.385 ± 0.053
GWMLVVWCGVFG | 0.174 ± 0.01 | 0.235 ± 0.0027 | 0.216 ± 0.035 | 0.338 ± 0.011 | 0.192 ± 0.011 | 0.195 ± 0.031 | 0.295 ± 0.0069 | 0.275 ± 0.03
LLCLAVVLWFVV | 0.216 ± 0.035 | 0.338 ± 0.019 | 0.239 ± 0.031 | 0.4051 ± 0.0011 | 0.212 ± 0.012 | 0.241 ± 0.024 | 0.3362 ± 0.0005 | 0.307 ± 0.03
GIGVVWLDVFKT | 0.4 ± 0.0057 | 0.499 ± 0.024 | 0.321 ± 0.035 | 0.537 ± 0.011 | 0.301 ± 0.024 | 0.304 ± 0.017 | 0.504 ± 0.035 | 0.426 ± 0.017
CVFFCVLVCFLS | 0.342 ± 0.0056 | 0.382 ± 0.023 | 0.302 ± 0.048 | 0.439 ± 0.006 | 0.317 ± 0.0066 | 0.3 ± 0.027 | 0.377 ± 0.0062 | 0.369 ± 0.036
DKKPMKKILLCI | 0.451 ± 0.0075 | 0.565 ± 0.068 | 0.494 ± 0.025 | 0.6477 ± 0.0033 | 0.0933 ± 0.02 | 0.0973 ± 0.0084 | 0.104 ± 0.0016 | 0.151 ± 0.029
VVIYWFLPIIFA | 0.09487 ± 0.00071 | 0.0751 ± 0.015 | 0.163 ± 0.032 | 0.253 ± 0.018 | 0.266 ± 0.006 | 0.155 ± 0.021 | 0.224 ± 0.013 | 0.23 ± 0.029
FFRFCFLLLASS | 0.303 ± 0.011 | 0.335 ± 0.01 | 0.221 ± 0.024 | 0.4 ± 0.01 | 0.197 ± 0.019 | 0.188 ± 0.013 | 0.355 ± 0.011 | 0.25 ± 0.061
LVLLRLSSLTIF | 0.627 ± 0.01 | 0.699 ± 0.0095 | 0.561 ± 0.018 | 0.707 ± 0.012 | 0.269 ± 0.011 | 0.314 ± 0.011 | 0.549 ± 0.034 | 0.404 ± 0.0068
CIFLLMAILSLA | 0.48 ± 0.055 | 0.558 ± 0.0093 | 0.363 ± 0.029 | 0.534 ± 0.023 | 0.2341 ± 0.00064 | 0.27 ± 0.025 | 0.427 ± 0.0079 | 0.411 ± 0.075
